In US20070238141:

The proteins below were run against GST-poly (Glu,Tyr) fused protein.
GST-poly (Glu,Tyr) fused protein, sequence (chain, as listed by the source): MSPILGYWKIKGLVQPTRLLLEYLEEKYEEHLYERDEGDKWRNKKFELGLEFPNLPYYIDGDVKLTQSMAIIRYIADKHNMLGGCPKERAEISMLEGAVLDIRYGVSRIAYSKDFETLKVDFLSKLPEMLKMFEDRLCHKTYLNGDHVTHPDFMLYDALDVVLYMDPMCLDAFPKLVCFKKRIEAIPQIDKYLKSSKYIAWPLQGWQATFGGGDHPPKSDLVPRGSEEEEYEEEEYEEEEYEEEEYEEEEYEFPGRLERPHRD

Protein	band of phosphorylated GST-poly (Glu,Tyr) fused protein in Western blotting with anti-phosphotyrosine antibody
ErbB4 Kinase (intracellular domain, Cell Signaling Technology) (protein) RRKSIKKKRALRRFLETELVEPLTPSGTAPNQAQLRILKETELKRVKVLGSGAFGTVYKGIWVPEGETVKIPVAIKILNETTGPKANVEFMDEALIMASMDHPHLVRLLGVCLSPTIQLVTQLMPHGCLLEYVHEHKDNIGSQLLLNWCVQIAKGMMYLEERRLVHRDLAARNVLVKSPNHVKITDFGLARLLEGDEKEYNADGGKMPIKWMALECIHYRKFTHQSDVWSYGVTIWELMTFGGKPYDGIPTREIPDLLEKGERLPQPPICTIDVYMVMVKCWMIDADSRPKFKELAAEFSRMARDPQRYLVIQGDDRMKLPSPNDSKFFQNLLDEEDLEDMMDAEEYLVPQAFNIPPPIYTSRARIDSNRSEIGHSPPPAYTPMSGNQFVYRDGGFAAEQGVSVPYRAPTSTIPEAPVAQGATAEIFDDSCCNGTLRKPVAPHVQEDSSTQRYSADPTVFAPERSPRGELDEEGYMTPMRDKPKQEYLNPVEENPFVSRRKNGDLQALDNPEYHNASNGPPKAEDEYVNEPLYLNTFANTLGKAEYLKNNILSMPEKAKKAFDNPDYWNHSLPPRSTLQHPDYLQEYSTKYFYKQNGRIRPIVAENPEYLSEFSLKPGTVLPPPPYRHRNTVV	In “+” of “i” to “vii”, a single band was seen at positions where a phosphorylated GST-poly (Glu,Tyr) fused protein appears
PDGF Receptor β Kinase (intracellular domain, Cell Signaling Technology) (protein) RYEIRWKVIESVSSDGHEYIYVDPMQLPYDSTWELPRDQLVLGRTLGSGAFGQVVEATAHGLSHSQATMKVAVKMLKSTARSSEKQALMSELKIMSHLGPHLNVVNLLGACTKGGPIYIITEYCRYGDLVDYLHRNKHTFLQHHSDKRRPPSAELYSNALPVGLPLPSHVSLTGESDGGYMDMSKDESVDYVPMLDMKGDVKYADIESSNYMAPYDNYVPSAPERTCRATLINESPVLSYMDLVGFSYQVANGMEFLASKNCVHRDLAARNVLICEGKLVKICDFGLARDIMRDSNYISKGSTFLPLKWMAPESIFNSLYTTLSDVWSFGILLWEIFTLGGTPYPELPMNEQFYNAIKRGYRMAQPAHASDEIYEIMQKCWEEKFEIRPPFSQLVLLLERLLGEGYKKKYQQVDEEFLRSDHPAILRSQARLPGFHGLRSPLDTSSVLYTAVQPNEGDNDYIIPLPDPKPEVADEGPLEGSPSLASSTLNEVNTSSTISCDSPLEPQDEPEPEPQLELQVEPEPELEQLPDSGCPAPRAEAEDSFL	In “+” of “i” to “vii”, a single band was seen at positions where a phosphorylated GST-poly (Glu,Tyr) fused protein appears
IGF-1 Receptor Kinase (intracellular domain, Cell Signaling Technology) (protein) RKRNNSRLGNGVLYASVNPEYFSAADVYVPDEWEVAREKITMSRELGQGSFGMVYEGVAKGVVKDEPETRVAIKTVNEAASMRERIEFLNEASVMKEFNCHHVVRLLGVVSQGQPTLVIMELMTRGDLKSYLRSLRPEMENNPVLAPPSLSKMIQMAGEIADGMAYLNANKFVHRDLAARNCMVAEDFTVKIGDFGMTRDIYETDYYRKGGKGLLPVRWMSPESLKDGVFTTYSDVWSFGVVLWEIATLAEQPYQGLSNEQVLRFVMEGGLLDKPDNCPDMLFELMRMCWQYNPKMRPSFLEIISSIKEEMEPGFREVSFYYSEENKLPEPEELDLEPENMESVPLDPSASSSSLPLPDRHSGHKAENGPGPGVLVLRASFDERQPYAHMNGGRKNERALPLPQSSTC	In “+” of “i” to “vii”, a single band was seen at positions where a phosphorylated GST-poly (Glu,Tyr) fused protein appears
VEGF Receptor 1 Kinase (intracellular domain, Cell Signaling Technology) (protein) RKMKRSSSEIKTDYLSIIMDPDEVPLDEQCERLPYDASKWEFARERLKLGKSLGRGAFGKVVQASAFGIKKSPTCRTVAVKMLKEGATASEYKALMTELKILTHIGHHLNVVNLLGACTKQGGPLMVIVEYCKYGNLSNYLKSKRDLFFLNKDAALHMEPKKEKMEPGLEQGKKPRLDSVTSSESFASSGFQEDKSLSDVEEEEDSDGFYKEPITMEDLISYSFQVARGMEFLSSRKCIHRDLAARNILLSENNVVKICDFGLARDIYKNPDYVRKGDTRLPLKWMAPESIFDKIYSTKSDVWSYGVLLWEIFSLGGSPYPGVQMDEDFCSRLREGMRMRAPEYSTPEIYQIMLDCWHRDPKERPRFAELVEKLGDLLQANVQQDGKDYIPINAILTGNSGFTYSTPAFSEDFFKESISAPKFNSGSSDDVRYVNAFKFMSLERIKTFEELLPNATSMFDDYQGDSSTLLASPMLKRFTWTDSKPKASLKIDLRVTSKSKESGLSDVSRPSFCHSSCGHVSEGKRRFTYDHAELERKIACCSPPPDYNSVVLYSTPPI	In “+” of “i” to “vii”, a single band was seen at positions where a phosphorylated GST-poly (Glu,Tyr) fused protein appears
